Paper PMC8575500

Molecular target: C12-AcpP (Escherichia coli acyl carrier protein AcpP, wt, carrying a C12 acyl chain) (Escherichia coli) (UniProt P0A6A8)
Sequence of UniProt P0A6A8 (P0A6A8 whole entry): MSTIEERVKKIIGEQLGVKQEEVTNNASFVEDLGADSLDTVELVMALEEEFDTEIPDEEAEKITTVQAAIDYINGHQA

| Substance | completion of the reaction after 10 min, from the remaining C12-AcpP by HPLC [%] |
| --- | --- |
| Escherichia coli FabF K65A/R68A/K69A (enzyme) | 15 |
| Escherichia coli FabF R127A/K128A/R206A (enzyme) | 13 |
| Escherichia coli FabF K65A/R127A/K128A (enzyme) | 44 |

The next lines start with the values.

| completion of the reaction after 10 min, from the remaining C12-AcpP by HPLC [%] | Substance |
| --- | --- |
| 65 | Escherichia coli FabF K65A/K69A (enzyme) |
| 39 | Escherichia coli FabF R206A (enzyme) |
